Results as given in the Immune Epitope Database (IEDB).

Tests used:
Experiment in all cases: IEDB peptide-MHC binding, purified MHC/competitive/radioactivity; ≥ and ≤ were set here for values at or beyond the usual limits of such assays
HLA-A*02:01 = target: HLA-A*02:01
HLA-A*02:02 = target: HLA-A*02:02
HLA-A*02:03 = target: HLA-A*02:03
HLA-A*02:06 = target: HLA-A*02:06
HLA-A*68:02 = target: HLA-A*68:02
[1] = source organism: Vaccinia virus WR
[2] = source organism: Hepacivirus hominis
[3] = source organism: Mammarenavirus choriomeningitidis
[4] = source organism: Mammarenavirus lassaense

Sequence | IC50 (HLA-A*02:01; [1]) [µM] | IC50 (HLA-A*02:02; [1]) [µM] | IC50 (HLA-A*02:03; [1]) [µM] | IC50 (HLA-A*02:06; [1]) [µM] | IC50 (HLA-A*68:02; [1]) [µM] | also measured
WVMDTLNGIM | 0.175 | 1.33 | 0.194 | 0.129 | 0.101 | 
RLLLLGLLLL |  |  |  |  |  | IC50 (HLA-A*02:01; [2]): 0.496 µM; IC50 (HLA-A*02:02; [2]): 1.21 µM; IC50 (HLA-A*02:03; [2]): 4.25 µM; IC50 (HLA-A*02:06; [2]): 1.05 µM; IC50 (HLA-A*68:02; [2]): 3.61 µM
TIDNIVTSL | 2.67 | 0.178 | 1.04 | 2.73 | 1.86 | 
SIDHCSSFIV | 0.023 | 0.172 | 0.772 | 0.03 | 0.732 | 
NTCKPTILAT | 4.41 | 0.46 | 0.248 | 3.92 | 1.64 | 
RTNDLTALL | 0.357 | 0.0037 | 0.0072 | 0.119 | 0.013 | 
IIFWFSLEI |  |  |  |  |  | IC50 (HLA-A*02:01; source organism: SARS-CoV1): 0.009 µM; IC50 (HLA-A*02:02; source organism: SARS-CoV1): 0.0018 µM; IC50 (HLA-A*02:03; source organism: SARS-CoV1): 0.087 µM; IC50 (HLA-A*02:06; source organism: SARS-CoV1): 0.0046 µM; IC50 (HLA-A*68:02; source organism: SARS-CoV1): 0.52 µM
ALVCYIVMPV |  |  |  |  |  | IC50 (HLA-A*02:01; source organism: SARS-CoV1): 0.0056 µM; IC50 (HLA-A*02:02; source organism: SARS-CoV1): 0.0012 µM; IC50 (HLA-A*02:03; source organism: SARS-CoV1): 0.0044 µM; IC50 (HLA-A*02:06; source organism: SARS-CoV1): 0.0029 µM; IC50 (HLA-A*68:02; source organism: SARS-CoV1): 0.088 µM
FMYTKHSML | 0.02 | 0.0024 | 0.00039 | 0.222 | 3.54 | 
NIVTFINDYA | 0.827 | 0.062 | 0.245 | 0.351 | 0.082 | 
LMDCIIFES |  |  |  |  |  | IC50 (HLA-A*02:01; [3]): 0.099 µM; IC50 (HLA-A*02:02; [3]): 0.03 µM; IC50 (HLA-A*02:03; [3]): 0.825 µM; IC50 (HLA-A*02:06; [3]): 0.3 µM; IC50 (HLA-A*68:02; [3]): 0.425 µM
NTTTFITVLT | 0.559 | 1.96 | 0.596 | 0.6 | 0.034 | 
KMAVEVGSI | 0.155 | 0.031 | 0.0028 | 0.119 | 0.806 | 
TLLGCWSFV |  |  |  |  |  | IC50 (HLA-A*02:01; [2]): 0.03 µM; IC50 (HLA-A*02:02; [2]): 0.087 µM; IC50 (HLA-A*02:03; [2]): 0.041 µM; IC50 (HLA-A*02:06; [2]): 0.134 µM; IC50 (HLA-A*68:02; [2]): 1.78 µM
TLVKSGLTEV | 0.0092 | 0.064 | 0.0029 | 0.045 | 2.31 | 
ALLSCISVPV |  |  |  |  |  | IC50 (HLA-A*02:01; [2]): 0.028 µM; IC50 (HLA-A*02:02; [2]): 0.041 µM; IC50 (HLA-A*02:03; [2]): 0.043 µM; IC50 (HLA-A*02:06; [2]): 0.076 µM; IC50 (HLA-A*68:02; [2]): 1.27 µM
FSTSFYLISI |  |  |  |  |  | IC50 (HLA-A*02:01; [4]): 0.032 µM; IC50 (HLA-A*02:02; [4]): 0.0021 µM; IC50 (HLA-A*02:03; [4]): 0.053 µM; IC50 (HLA-A*02:06; [4]): 0.0092 µM; IC50 (HLA-A*68:02; [4]): 0.0018 µM

Sequence | IC50 (HLA-A*02:01; [1]) [µM] | IC50 (HLA-A*02:02; [1]) [µM] | IC50 (HLA-A*02:03; [1]) [µM] | IC50 (HLA-A*02:06; [1]) [µM] | IC50 (HLA-A*68:02; [1]) [µM] | also measured
NTDHPLSINV | 0.307 | 0.388 | 0.583 | 0.0016 | 0.00067 | 
TIGTIAGGV | 0.772 | 0.298 | 0.017 | 1.14 | 0.07 | 
IVYGRSNAIL | 0.724 | 0.092 | 0.033 | 0.424 | 0.642 | 
FTFGDTALYV | 0.181 | 0.024 | 0.048 | 0.0035 | 0.175 | 
SLMAFTASI |  |  |  |  |  | IC50 (HLA-A*02:01; [2]): 0.106 µM; IC50 (HLA-A*02:02; [2]): 0.019 µM; IC50 (HLA-A*02:03; [2]): 0.04 µM; IC50 (HLA-A*02:06; [2]): 0.743 µM; IC50 (HLA-A*68:02; [2]): 0.284 µM
MLPESDLDKV | 0.011 | 0.0032 | 1.77 | 0.0044 | 0.196 | 
TLIQYRQQL | 0.134 | 0.128 | 0.41 | 1.88 | 0.725 | 
SIYIAVANCV | 1.46 | 0.534 | 0.063 | 1 | 0.306 | 
KLPTLFGRGV | 0.273 | 0.19 | 0.033 | 0.053 | 0.509 | 
NTIDKSSPL | 0.972 | 0.082 | 0.027 | 0.019 | 0.0057 | 
VLVGGVLAAL |  |  |  |  |  | IC50 (HLA-A*02:01; [2]): 0.06 µM; IC50 (HLA-A*02:02; [2]): 0.011 µM; IC50 (HLA-A*02:03; [2]): 0.005 µM; IC50 (HLA-A*02:06; [2]): 0.141 µM; IC50 (HLA-A*68:02; [2]): 0.15 µM
FLFWFLKSGA | 0.0019 | 0.0011 | 0.00058 | 0.023 | 0.038 | 
CTINVNSLAL | 1.04 | 0.494 | 1.04 | 0.216 | 0.517 | 
AIILASFSA |  |  |  |  |  | IC50 (HLA-A*02:01; source organism: SARS-CoV1): 0.274 µM; IC50 (HLA-A*02:02; source organism: SARS-CoV1): 0.201 µM; IC50 (HLA-A*02:03; source organism: SARS-CoV1): 0.176 µM; IC50 (HLA-A*02:06; source organism: SARS-CoV1): 0.082 µM; IC50 (HLA-A*68:02; source organism: SARS-CoV1): 0.87 µM
LLSAGIFGA |  |  |  |  |  | IC50 (HLA-A*02:01; source organism: SARS-CoV1): 0.0081 µM; IC50 (HLA-A*02:02; source organism: SARS-CoV1): 0.012 µM; IC50 (HLA-A*02:03; source organism: SARS-CoV1): 0.015 µM; IC50 (HLA-A*02:06; source organism: SARS-CoV1): 0.025 µM; IC50 (HLA-A*68:02; source organism: SARS-CoV1): 0.106 µM
FVYVSVMNFI | 0.704 | 0.076 | 0.018 | 0.0075 | 0.057 | 
VLMTHFFSVL |  |  |  |  |  | IC50 (HLA-A*02:01; [2]): 0.114 µM; IC50 (HLA-A*02:02; [2]): 0.062 µM; IC50 (HLA-A*02:03; [2]): 0.021 µM; IC50 (HLA-A*02:06; [2]): 0.112 µM; IC50 (HLA-A*68:02; [2]): 4.69 µM
